Assay results from the nanobody polyreactivity screen of Harvey et al. (2022).

Assay: yeast display, Sf9 membrane polyspecificity reagent, FACS + sequencing; frameworks hold sequencing errors
In short: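 Sorting gates, low and high (top ~1%), were placed on anti-HA fluorescence to track expression and on streptavidin fluorescence to track reagent binding. A clone's polyreactivity label is taken from the gate it came out of. The reagent was 10% biotinylated, detergent-solubilized Sf9 membrane, applied for 1 hour at 4 °C to galactose-induced yeast display cells.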

Row | Sequence | polyreactivity (PSR sort gate)
1 | QVQLQESGGLVQAGGSLRLSCAASGSISGRNVMGWYRQAPGKEREFVASITDGSSTNYADSVKGRVTISRDNAKNTVYLQMNSLKPKDTAVYYCAAYAQRAKSFGYWGRGTQVTVSS | low polyreactivity
2 | QVQLVESGGGLFQAGGSLRLSCAASGIIFTSYAMGWYRQAPGKESEFVAAITRSGSRTYYADSVKGRFTISRDNAKNTVYLQMNRLKPEDTAVYYCAARTYHDSSDSYAGGYWGQGTQVTVSS | low polyreactivity
3 | QVQLVESGGGLVQAGGSLRLSCAASGRIFGMYTKGWYRQETGKETELVAAINTGGSTYYADSVKGRFTISRDNAKNTVYLQMNSLKPEDTAVYYCNAETGWPWIYHYDYWGQGTQVTVSS | low polyreactivity
4 | QVQLVESGGGLVQAGGSLRLSCAASGFIFFRYAMGWYRQAPGKERELVAAISTRTGITYYADSVKGRFTISRDNAKNTVYLQMNSLKPEDTAVYYCNVLRSHSLYPFWKYDYWGQGTQVTVSS | high polyreactivity
5 | QVQLVESGGGLVQAGGSLRLSWAASGRTFNRYVMGWYRQAPGKERELVAAISRSGTSTYYADSVKGRFTISRDNAKNTVYLQMNSLKPEDTAVYYCAREYQTVSFKNYYWGQGTQVTVSS | high polyreactivity
6 | QVQLVESCGGLVQAGGSLRLSCAASGRTFYKAMGWYRQAPGKERELVAASTTGGGTKYADSVKGRFTISRDNAQNTVYLQMNSLKPEDTAVYYCNTDEWYHFYHGAHKYDYWGQGTQVTVSS | low polyreactivity
7 | QVQLVESGGGLVQAGGSLRLSCAASGFTLSYNVMGWYRQAPGKERELVAAISDSGGSTYYADSVKGRFTISRDNAKNTVYLQMNSLKPEDTAVYYCAAYYPTRYQYGTIWVAYNYWGQGTQVTVSS | low polyreactivity
8 | QVQLVESGGGLVQAGGSLRLSCAASGLTFPYNVMGWYRQAPGKERELVASITSVGTTDYADSVKGRFTISRDNAKNTVYLQMNSLNPEDTAVYYCAADVTLFYWWYGKEDYDYWGQGTEVTVSS | low polyreactivity
9 | QVQLVESGGGLVQAGGSLRLSCAASGNILWFNAMGWYRQAPGKERELVASITSSGGRTYYADSVKGRFTISRDNAKNTVYLQMNSLKPEETAVYYCAAEYYYGWTYSGGLGFLGYNYWGQGTQVTVSS | low polyreactivity
10 | QVQLVESCGGLVQAGGSLRLSCAASGYTFRYYAMGWYRQAPGKERELVARITGRAGSTYYADSVKGRFTISRDNAKNTVYLQMNSLKPEDTAVYYCAASIREGFYWGHGTQVTVSS | high polyreactivity
11 | QVQLVESGGGLVQAGGSLRLSCAASGIIFTRNAKGWSRQAPGKERELVAAISRSGGRTSYADSVKGRFTISRDNAKNTVYLHMNSLKPEDTEVYYCYARTTSGWGQGTQVTVSS | high polyreactivity
12 | QVQRVESGGCLVQAGGSLRLSCAASGRTFSYYTMGWYRQAPGKEREFVATINTSGGSTYYADSVKGRFTISRDNAKNTVYLQMNSLKPEDTAVYYCAADVYSFLSISYQWYRMDYWGQGTQVTVSS | low polyreactivity
13 | QVQLVESGGGLVQAGGSLRLSCAASGRIFVYNVMGWYSQSPGKERELVAAISWGTGSTYADSVKGRFTISRDNAKNTVYLQMNSLKPEDTAVYYCADDSFIPPYDHWGQGTQVTVSS | low polyreactivity
14 | QVQLVESGGGLVQAGGSLRLSCAASGFIFVYYARGWYRQAPGKEMELVAAISRGGSTYYADSVKGRFTISRDNAKNTVYLQMNSLKPEDTAFYYCNKVLPYGREYGYWGQGTQVTVSS | high polyreactivity
15 | QVPLVESGGGLVQAGGSLRLSCAASGSIFTVYAVGWYRQAPGKERELVASIRFSSGRTYYADSVKGRFTISRDNAKNTVYLHMTSLKPEDTAVYYCAAETVSWYRYYYWGQGTQVTVSS | high polyreactivity
16 | QVQLVESGGGLVQAGGSLRLSCAASGLTSNGYTMGWYRQAPGKERELVAAITGRDGSTYADSVKGRFTISRDNAKNTVYLQMNSLKPEHTAVYYCAARLWRYRRYDYWGQGTQVTVSS | high polyreactivity
17 | QVQLVESGGGLVQAGGSLRLSCAASGYIFDYYAMGWYRQAPGKERELVAGISRRGGSTYYADSVKGRFTISRDNAKNTVYLQMNSLKPEDTAVYYCAGLGDDATSYGYWGQGTQVTVSS | high polyreactivity
18 | QVQLVESGGGLVQAGGSLRLSCAASGRTLSYYAMGWYRQAPGKEREFVAAINWSGGSTYYADSVKGRFTISRDNAKNTVYLQMISLKPEDTAVYYCAAYRPYSSSEGDYWGQGTQVTVSS | high polyreactivity
19 | QVQLVESGGGLVQAGGSLRLSCAASGLIFNKNSMGWYRQAPGKERELVASNTTTGARTYYADSVKGRFTISRDNAKNTVYLQMNSLKPEDTAFYYCASVHWGWRSITGGVGYDSWGQGTQVTVSS | high polyreactivity
20 | QVQLVESGGGLVQAGGSLRISCAASGFTFYYNAMGWYRQAPGKERELVASISSNGTSTYYADSVKGRFTISRDNAKNTVYLQMNSLKPEDTAVYYCNVDIFDPRTYDYWGQGTQVTVSS | low polyreactivity
21 | QVQLVESGGGLVQAGGSLRLSCAASGRIFQGNAMGWYRQATGKERELVAAITTSGGSTYYADSVKGRFTISRDNAKNTVYLQMNSLKPEDTAVYYCNVDPRKRSYDYWGQGTQVTVSS | high polyreactivity
22 | QVQLVESGGGLVQAGGSLRLSCAASGSTYYKYAMGTDRPAPGKERELVASSSRSGGSTSYADSVKGRFTISRDNAKNTVYLQMNSVKPEDTAVYYCAATWRQHPGSMGYWGQGTQVTVSS | high polyreactivity

Row | Sequence | polyreactivity (PSR sort gate)
23 | QVKLVESGGGLVQAGGSLRLSCAASGSTYWQYSMGWYRHAPGKEREFVAAISSRGGSTYYADSVKGRFTISRDNAKNTVYLQMNSLKPEDTAVYYFAAKNYFAFIRTYRYVHRPTYYYWGQGTQVTVSS | high polyreactivity
24 | QVQLVESGRGLVQEGGSLRLSCASSGSTFKVYAMGWYRQAPGKERELVAAISQSGGSTYYADSVKGRFTISRDNAKNTVYIQMNSLKPEDTAVYYCAVRTYVYNWSFSSLPYDYWGQGTQVTVSS | high polyreactivity
25 | QVQLVESGGGLVQAGGSLRLTCAASGGTFQVNAMGWYRQAPGKEMELVAAINRSGGGTTYADSVKGRFTISRDNAKNTVYLQMNSLKPEDTAVYYCAVDFYTYYYVEYGYWGQGTEVTVSS | high polyreactivity
26 | QVQLVESGGGLVQAGGSLRLSCAASGRTFLYYAMGWYRQAPGKERELVAAITWSGGSTYYADSVKGRFTISRDNAKNTVYLQMNSLKPEDTAVYYCAALGWIDWYWQPGMDYWGQGTQVTVSS | high polyreactivity
27 | QVQLVESGGGLVQAGGSLRLSCAASGFTFTTYAMGWYRQAPRQVRELVAAITRRGGSTYYADSVKGRFTISRDNEKNTVYLQMNSLKPEDTAVYYCAAGGGWGLDFWGQGTQVTVSS | high polyreactivity
28 | QVQLVESGGGLVQAGGSLRLSCAASGITFDRYVMGWYRQAPGKERELVAAISWTGDSTYYADSVKGRFTISRDNAKNTVYLQMNSQKPEDTAVYYCAAEDLWYGYNYWGQGTQVTVSS | high polyreactivity
29 | QVQLVESGGGLVQAGGSLRLSCAASGRIFGAYAMGWYRPAPGKERELVAAISARGGRTYYADSVKGRFTISRDNAKNTVYLQMNSLKPEDTAVYYCAKTLRDPYRYDYWGQGTQVTVSS | high polyreactivity
30 | QVQLVESGGGLVQAGGSLRLSCAASGRTFVVNAMGWSRQAPGKERELVAAITRRGGITYYADSVKGRFTISRDNAKNTVYLQMNSLKPEDTAVYYCAADRSYYPDTRTTYGYNYWGQGTQVTVSS | low polyreactivity
31 | QVQLVESGGGLVQAGGSLRLSCAAYGSIFVWYDMGWYRQAPGKERELVATISLSGVSTYYADSVKGRFTISRDNAKNTVYLQMNCLKPEDSAVYYCAADFVEQGEDDYWGQGTQLTVSS | low polyreactivity
32 | QVQLGESGGGLGQAGGSLSLSCAATGSIFPYNPMGWYRQAPGKERELVATINSRGGRTYYADSVKGRFTISRDNAKNTVYLQMNSLKPEDTAVYYCARYYSSALRYGYWGQGTQVTVSS | low polyreactivity
33 | QVQLVESGGGLVQAGGSLRLSCAASGLTFDYYAMGWYRQAPGKERELVAAISSSGGSTYYADSVKGRFTISRDNAKNTVYLQMNSLKPEDTAVYYCNAGGRRRIFAHSSTGDYWGQGTQVTVSS | high polyreactivity
34 | QVQLVESGGGLVQAGGSLRLSCAASGSTILINAMGWYRQAPGKERELVAAISRDGSTNYADSVKGRFTISRDNAKNTVYLQMNSLKPEDTAVYYCAAVPGISVGRQPGYDYDYWGQGTQVTVSS | low polyreactivity
35 | QVQLVESGGGLVQAGGSLRLSCAASGSTFHWYVMGWYRQAPGKERELVAAITWSGGSTYYADSVKGRLTISRDNAKNTVYLQMNSLKPEDTAVYYCNAVFWIWNAGYDYWGQGTQVTVSS | low polyreactivity
36 | QVQLVESGGGLVQAGGSLRLSCAASGSTFVYNAMGWYRQAPGKERELVAAISRRGTSTYYADSVKGRFTISRDNAKNTVYLQMNSLKPEDTAVYYCAASQLSRSGQYRRDYWGQGTQVTVSS | high polyreactivity
37 | QVQLVESGGGLVQAGGSLRLSCAASGSTFLHYAMGWYRQAPGKERELVAAISFSGVRTYYADSVKGRFTISRDNAKNTVYLQLNSLKPEDNAVYYCDADGHHADYDYLGQGTQVTVSS | low polyreactivity
38 | QVQLVESGGGLVQAGGSLRLSCAASGLIFYVYAMGWYRQAPGKERELVAAISFRGTSTYADSVKGRFTISRDNAKNTVYFQMNSLKPEDTAVYYCAVTGFDVLWPSLGGELDYWGQGTQVTVSS | low polyreactivity
39 | QVQLVESGGGLVQAGGSLRLSCAASGSTFSRNAMGWYRQAPGKERELVAAITRSGGSTYYADSVKGRFTISRDNAKNTVYLQMNSLKPEDTAVYYCAVAVPRGVYLYDYWGQGTQVTVSS | low polyreactivity
40 | QVQLVESGGGLVQAGGSLPLSIAASGRIFHIYAMGWYRQAPGKERELVAAISGSTSYADSVKGRFTISRDNAKNTVNLQMNSLKPEDKAVYYCAARALLPNGEYWGQGTQVTVSS | low polyreactivity
41 | QVQLVESAAGLVQAGGCLRLSCAASGRIFGYYAMGGYRKAPGKERELVAAITSGGGTYYADSVKGRFTNSRDNAKNTVYLQMNSLKPEDTAVYFCAADDYFHDDYCGQGTQVTVSS | high polyreactivity
42 | QVQLVESGGGLVQAGGSLRLSCAASGRIFGYYTMGWYRQAPGKERELVAAISSGGTTYYADSVKGRFTISRDNAKNTVYLQMNSLKPEDTAVYYCAADYYNTYGYDYWGQGTQVTVSS | low polyreactivity
43 | QVQLVESGGGLVQAGGSLRLSCAASGSTFYVNAMGWYRQAPGKERELVAAINSGGRTYYADSVKGRFTISRDNAKNTVYLQMNSLKPEDTAVYYCAAEVSYYLNEFDYWGQGTQVTVSS | low polyreactivity
